From PMC4579555, “The Cryo-EM structure of the CorA channel from Methanocaldococcus jannaschii in low magnesium conditions” (Biochimica et Biophysica Acta, 2015)

Target: the molecule itself
Assay: self-rotation function of X-ray crystallographic data; crystals grown at low pH (0.1 M sodium citrate pH 3.5, 50 mM magnesium sulphate, 50 mM cobalt chloride, 0.1 M NaCl, 13% PEG 4000, 0.9% beta-octylmaltoside); data to 9.0 A, spacegroup P2(1); structure not phased; POLARRFN self-rotation function, data to 12 A

B1: Methanocaldococcus jannaschii CorA channel (natural protein)
chain: MITVIAIAKDGSIVEPKLDEISFEDYRLIWIDCYDPKDEELYKLSKKIGISVSDLQIGLDEQEIPRVEEDEDFYLIIYKAPLFEEDITTTSLGIYIKNNLLLTIHSDKIKAIGRLHKLISTKKPRIVFERGIGFLLYHILNEITRSYSRILMNLEDELEELEDKLLAGYDREVMEKILGLRKTLVYFHKSLIANRDVLVLLKRKYLPITTKEDRENFEDLYYDTLQLIDMSATYREVLTSMMDITLSLENIKMNQIMKILTMVTTIFAVPMWITGIYGMNFSYLPLANNPQGFWLVMALMVVIIMIFVYIFRRSGWI
notes: CorA magnesium channel of Methanocaldococcus jannaschii (MjCorA); holds the N-terminal, conical and trans-membrane domains; also called MjCorA; source: final buffer 200 mM NaCl, 20 mM Tris/HCl pH8, 0.04% DDM
Q: For B1, which “stoichiometry N” value is on record?
A: Its value is 5.
